These results are taken from patent publication US20160115199A1 (AADIGEN, published 2016).

The target in one assay is cdk2/cyclin A complex (UniProt P24941 1-298; P20248 1-432). The experiment in a line: cell-based or functional assay.
The target in a further assay is HIV integrase (HIV-1, UniProt P03367 1160-1447). As to the kind of experiment: cell-based or functional assay.

Where no end group is shown, it is not given here.

For KKQVRMAHLVLT (also: FITC or Cy5 label, position not given here) [C4 peptide (KKQVRMAHLVLT)], in the assay with cdk2/cyclin A complex, the “IC50 of cell proliferation, Hela cells, C4 delivered by VEPEP-4” value worked out at 50 nM and the “IC50 of cell proliferation, MCF7 cells, C4 delivered by VEPEP-4” value turned out to be 60 nM.
Consider RWTEWEWW (also: cyclic, mode of cyclisation not given here) [PC4 cyclic peptide (RWTEWEWW)], for which, in the assay with HIV integrase, the “IC50 of viral replication (RT activity) on PBMC infected by HIV-1 LAI, PC4D delivered by Short 4” value was 0.37 nM; the “IC50 of viral replication (RT activity) on PBMC infected by HIV-1 LAI, PC4D delivered by VEPEP-3i” value came out at 0.24 nM; the “IC50 of viral replication (RT activity) on PBMC infected by HIV-1 LAI, PC4D delivered by VEPEP-3j” value is 0.17 nM.
